Laboratory results reported in patent publication US20240424129A1, “RECOMBINANT FUSION ANTIBODY, AND ANTIBODY-DRUG CONJUGATE AND USE THEREOF” (SUN YAT-SEN UNIVERSITY, priority 2021, published 2024).
Non-standard residues stand in square brackets, D forms with d. Residues, ends and D or L forms follow the SMILES beside them. Dolaproine = CO[C@@H]([C@@H]1CCCN1)[C@@H](C)C(=O)O; Dil = CC[C@H](C)[C@H](NC)[C@@H](CC(=O)O)OC; NMeV = CN[C@H](C(=O)O)C(C)C

B1: Fused VHH7: anti-HER2 nanobody fused with lysosome-targeting peptide P7, SEQ ID NO: 39 (protein)
chain: EVQLVESGGGLVQAGGSLRLSCAASGITFSINTMGWYRQAPGKQRELVALISSIGDTYYADSVKGRFTISRDNAKNTVYLQMNCLKPEDTAVYYCKRFRTAAQGTDYWGQGTQVTVSSHHHHHHLPETGGGSDEDLLHI
B2: Fused VHH8: anti-HER2 nanobody fused with P7, His6 tag after the peptide, SEQ ID NO: 40 (protein)
VHH: EVQLVESGGGLVQAGGSLRLSCAASGITFSINTMGWYRQAPGKQRELVALISSIGDTYYADSVKGRFTISRDNAKNTVYLQMNCLKPEDTAVYYCKRFRTAAQGTDYWGQGTQVTVSSLPETGGGSDEDLLHIHHHHHH
modifications: linker, P7 peptide, His6 tag
B3: Fused VHH8-MMAF (conjugate)
VHH: B2 VHH

Columns and labels:
Format in all cases: cell-based, human
SKBR3 cells [1] = test: In-vitro cytotoxicity, CCK8 cell viability; settings: SKBR3, 48 h; for IC50: CCK8, mean n=3
Protocol: (§1) In this example, human breast cancer cell line SKBR3 with high expression of HER2 and human ovarian cancer cell line SKOV3 with high expression of HER2 were chosen to evaluate the ability of the recombinant-fusion-antibody-drug conjugates to inhibit the growth of cancer cells. The recombinant-fusion-antibody-drug conjugates of different concentrations were added to a 96-well plate seeded with SKBR3 or SKOV3 cells. After treatment for 48 h, the viability of cells was calculated using a CCK8 kit.
Cell viability was measured using different concentrations of MMAF, VHH0-MMAF, or different recombinant-fusion-nanobody-drug conjugates (fused VHH1-MMAF to fused VHH26-MMAF). The half-maximal inhibitory concentration IC50 was calculated (FIGS. 14A-14C, and Table 7). FIGS. 14A, 14B and 14C respectively show the viability of SKBR3 cells treated with the recombinant-fusion-nanobody-drug conjugates, including fused VHH1-MMAF to fused VHH6-MMAF, fused VHH7-MMAF to fused VHH22-MMAF, and fused VHH23-MMAF to fused VHH26-MMAF. […] Data are expressed as the mean (n=3).
(§2) SKBR3 and SKOV3 cells were chosen to evaluate the ability of the recombinant-fusion-full-length-antibody-drug conjugates to inhibit the growth of cancer cells. […] The half-maximal inhibitory concentration IC50 was calculated.

SKOV3 cells = test: In-vitro cytotoxicity, CCK8 cell viability; settings: SKOV3, 48 h, CCK8, mean n=3; Table 9
Protocol: as §1, §2

MDA-MB-231 cells = test: In-vitro cytotoxicity, HER2-negative negative control; settings: MDA-MB-231, FIG. 15
Protocol: as §1
In addition, in this example, the HER2-negative MDA-MB-231 cells were chosen as a negative control to compare the ability of fused VHH7-MMAF, fused VHH8-MMAF, VHH0-MMAF, VHH0, and MMAF to inhibit the growth of cancer cells.

SKBR3 cells [2] = test: Internalization of TAMRA-labeled recombinant fusion antibodies by flow cytometry; settings: 2 μM, 6 h, acid wash, compared with non-fused VHH0
Protocol: The recombinant fusion antibody was labeled a fluorescent molecule and the internalization activity of the labeled antibody was evaluated by flow cytometry.
The procedure included the following steps: First, 5 mM tris (2-carboxyethyl) phosphine (TCEP; Thermo Fisher Scientific) was added to reduce the sulfhydryl group of VHH0 and fused VHH1-VHH26 respectively for approximately 30 min at room temperature, then TCEP was removed by buffer-exchanging with PBS containing 1 mM ethylenediaminetetraacetic acid (EDTA). Next, 2 eq of Maleimide-PEG3-TAMRA was added to the antibody solution and the resulting solution was incubated at 4° C. for 2 h. Lastly, the excess small molecules were removed by buffer-exchanging to obtain TAMRA-labeled VHH0 and fused VHH1-VHH26.
In this example, SKBR3, a human breast cancer cell line with a high expression level of HER2, was used as a model system. […] SKBR3 cells were incubated with TAMRA-labeled antibodies for 6 h, and subsequently washed with acid to remove bound antibodies on the cell membrane, and the fluorescence intensity was analyzed by flow cytometry.

SKBR3 cells [3] = test: Colocalization of recombinant fusion antibodies with lysosomes by confocal laser scanning microscopy; settings: TAMRA-labeled, 4 h, SKBR3, LysoTracker Green; compared with non-fused VHH0
Text: Confocal laser scanning microscope (CLSM) was used to analyze the colocalization of the recombinant fusion antibodies with the lysosome. The antibody-drug conjugate would be transported and processed in the endocytotic pathway as follows: once the antibody-drug conjugate binds to the cell-surface tumor antigen, it is internalized into endosomes, which subsequently mature and fuse with lysosomes. In the lysosomes, the acidic environment and specific proteases (e.g., cathepsin B) degrade the ADC, thus leading to the release of the drug. The free drug traverses the lysosomal membrane, reaches the cytosol and binds to its target, such as microtubule or DNA, thus ultimately triggering cell death. Therefore, the efficacy of an antibody-drug conjugate relies on its internalization and lysosomal trafficking.
In this example, SKBR3 cells were treated with TAMRA-labeled antibodies, including VHH0, fused VHH1-VHH26, mAb0, or fused mAb1-mAb3, for 4 h. The nuclei of SKBR cells were stained by Hoechst 33342 and the lysosomes of cells were stained by LysoTracker Green. The lysosome-trafficking activity of VHH0, fused VHH1-VHH26, mAb0, and fused mAb1-mAb3 was evaluated by confocal laser scanning microscopy. All images were presented under identical conditions. For quantitative analysis, the same threshold value was set for all images.

| Molecule | maximal killing (SKBR3 cells [1]; CCK8) | IC50 (SKBR3 cells [1]; Table 7) | IC50 (SKBR3 cells [1]; Table 8) | IC50 (SKOV3 cells) | cytotoxicity in HER2-negative cells (MDA-MB-231 cells) | internalization ability of nanobodies (mean cell fluorescence) (SKBR3 cells [2]) | colocalization of nanobodies with lysosomes / lysosomal trafficking (SKBR3 cells [3]) |
| --- | --- | --- | --- | --- | --- | --- | --- |
| CC[C@H](C)[C@@H]([C@@H](CC(=O)N1CCC[C@H]1[C@H](OC)[C@@H](C)C(=O)N[C@@H](Cc1ccccc1)C(=O)O)OC)N(C)C(=O)[C@@H](NC(=O)[C@@H](NC)C(C)C)C(C)C [MMAF, monomethyl auristatin F, reference compound] (H-[NMeV]V[Dil][Dolaproine]F-OH) | about 50% | 53.2 nM | 37.4 nM | 37.4 nM | significant cell death | – | – |
| B1 | – | – | – | – | – | no significant difference in the internalization ability between fused VHH7 and fused VHH8 | No significant difference in lysosomal trafficking |
| B2 | – | – | – | – | – | no significant difference in the internalization ability between fused VHH7 and fused VHH8 | No significant difference in lysosomal trafficking |
| B3 | – | 0.319 nM | – | – | none of the substances are cytotoxic | – | – |
